Five molecules from article PMC12102760 (Protein Science : A Publication of the Protein Society, 2025) can be followed below.

Broadly, the Kd is a measure of binding affinity in units of concentration.

For data set [1], the target named is T1, EphA2 extracellular domain (ECD) (human, UniProt P29317).
T1 construct: EphA2, human, extracellular domain (LBD, CRD, FN1, FN2); The catalogue number is printed for the SEC and the selections; also called EphA2 ECD; EphA2-His; source: bought: R&D Systems (3035-A2)
In words: SPR; EphA2 ECD immobilised by amine coupling on GLC chip, Fabs from 100 nM in three-fold dilutions, PBS, 25°C, 1:1 Langmuir model. The settings on record: both partners purified. (In SPR one partner is held on a chip, and binding of the other changes the refractive index at the surface.)

In a further data set the target is T2, EphA4-Fc (Homo sapiens, UniProt P54764).
T2 construct: EphA4, human, extracellular domain
In words: BLI; IgG captured on anti-human biosensors, quenched with Fc; receptor ECD-Fc in solution, three-fold dilutions from 300 nM; PBS, 1% BSA, 0.05% Tween 20; 25°C; 1:1 binding model. The settings on record: both partners purified. A general note: Biolayer interferometry detects binding as a change in optical thickness at a sensor tip.

A further data set concerns the target T3, EphA8-Fc (Homo sapiens, UniProt P29322).
T3 construct: EphA8, human, extracellular domain
The data set is described as above. The note with it: both partners purified.

The target in the next data set is T4, EphA2-Fc (Homo sapiens, UniProt P29317).
T4 construct: EphA2, human, extracellular domain; Eph ECDs used for the phage selections were from R&D; also called EphA2 ECD
Described as above. The note with it: both partners purified.

Data set [2] concerns the molecule itself. Put plainly: crystal structure; Fab^S1CEL1 with EphA2 LBD-CRD, 4.6 Å; 16% PEG 8000, 100 mM CHES pH 9.0, 200 mM magnesium sulfate; one Fab and two LBD-CRD in the asymmetric unit.

T1 sequence (P29317 24-537): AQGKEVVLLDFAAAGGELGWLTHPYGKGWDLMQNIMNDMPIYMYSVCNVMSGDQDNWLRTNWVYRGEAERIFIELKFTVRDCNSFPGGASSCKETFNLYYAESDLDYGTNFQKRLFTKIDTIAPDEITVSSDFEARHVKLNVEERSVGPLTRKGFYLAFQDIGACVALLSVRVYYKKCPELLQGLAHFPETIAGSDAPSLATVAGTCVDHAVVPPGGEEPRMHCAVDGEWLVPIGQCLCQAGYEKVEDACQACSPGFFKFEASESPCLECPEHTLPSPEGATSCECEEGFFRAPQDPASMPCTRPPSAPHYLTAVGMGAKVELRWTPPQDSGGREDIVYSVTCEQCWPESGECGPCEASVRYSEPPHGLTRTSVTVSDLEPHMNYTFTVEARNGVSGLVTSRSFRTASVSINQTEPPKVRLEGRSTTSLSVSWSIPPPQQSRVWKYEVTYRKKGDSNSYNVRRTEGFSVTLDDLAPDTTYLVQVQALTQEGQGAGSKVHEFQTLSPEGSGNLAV
T4 sequence (P29317 24-537): as above
T3 sequence (P29322 28-542): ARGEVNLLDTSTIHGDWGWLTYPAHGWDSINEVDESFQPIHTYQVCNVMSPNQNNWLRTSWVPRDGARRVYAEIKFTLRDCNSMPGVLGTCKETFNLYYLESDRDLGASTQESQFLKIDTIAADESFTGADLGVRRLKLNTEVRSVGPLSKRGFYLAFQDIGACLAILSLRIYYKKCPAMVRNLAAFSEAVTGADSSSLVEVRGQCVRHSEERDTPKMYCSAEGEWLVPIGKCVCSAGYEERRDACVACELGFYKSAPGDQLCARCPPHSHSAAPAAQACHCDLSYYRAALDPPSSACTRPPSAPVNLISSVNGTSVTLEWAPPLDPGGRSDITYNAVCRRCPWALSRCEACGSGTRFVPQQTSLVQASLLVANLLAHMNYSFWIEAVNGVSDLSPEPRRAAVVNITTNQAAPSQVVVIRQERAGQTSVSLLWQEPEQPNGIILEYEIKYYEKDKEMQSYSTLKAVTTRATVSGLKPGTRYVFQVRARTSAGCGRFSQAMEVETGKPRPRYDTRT
T2 sequence (P54764 20-547): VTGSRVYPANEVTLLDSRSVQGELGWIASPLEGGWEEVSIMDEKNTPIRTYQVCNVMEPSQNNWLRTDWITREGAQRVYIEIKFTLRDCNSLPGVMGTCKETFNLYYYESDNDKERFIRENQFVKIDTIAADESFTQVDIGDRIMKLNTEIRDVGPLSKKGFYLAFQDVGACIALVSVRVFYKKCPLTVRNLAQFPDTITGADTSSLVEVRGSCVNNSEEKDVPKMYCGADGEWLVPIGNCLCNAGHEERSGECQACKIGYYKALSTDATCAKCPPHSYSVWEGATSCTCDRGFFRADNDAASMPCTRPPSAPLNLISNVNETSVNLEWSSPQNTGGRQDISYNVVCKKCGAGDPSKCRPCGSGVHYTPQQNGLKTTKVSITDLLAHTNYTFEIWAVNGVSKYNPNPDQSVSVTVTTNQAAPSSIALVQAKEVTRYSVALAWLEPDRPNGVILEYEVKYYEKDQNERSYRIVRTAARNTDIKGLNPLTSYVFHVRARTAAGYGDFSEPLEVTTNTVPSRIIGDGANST

B1: Fab C1 (Fab, V domains shown)
VH: EVQLVESGGGLVQPGGSLRLSCAASGFTIYYSSMHWVRQAPGKGLEWVASISSYYGYTYYADSVKGRFTISADTSKNTAYLQMNSLRAEDTAVYYCARYYAMDYWGQGTLVTVSS
VL: DIQMTQSPSSLSASVGDRVTITCRASQSVSSAVAWYQQKPGKAPKLLIYSASSLYSGVPSRFSGSRSGTDFTLTISSLQPEDFATYYCQQYYGYGGYPITFGQGTKVEIK
notes: synthetic Fab from phage library F; The deposited chains carry crystallisation-enhancing framework substitutions that this Fab lacks; source: E. coli BL21, purified (Protein A)
B1 yielded an equilibrium dissociation constant (Kd) in data set [1] of under 1 nM.

B2: IgG L1 (antibody, V domains shown)
VH: EVQLVESGGGLVQPGGSLRLSCAASGFTISSSYIHWVRQAPGKGLEWVASISSYYGSTSYADSVKGRFTISADTSKNTAYLQMNSLRAEDTAVYYCARSHYSVWWGWHSVSYYAAFDYWGQGTLVTVSS
VL: DIQMTQSPSSLSASVGDRVTITCRASQSVSSAVAWYQQKPGKAPKLLIYSASSLYSGVPSRFSGSRSGTDFTLTISSLQPEDFATYYCQQGSAPFTFGQGTKVEIK
notes: full-length IgG constant region not specified; as the light chain of m12; Bivalent full-length IgG; also called L1 IgG; Ab L1; source: mammalian cells, purified; copies: 2 + 2
In the case of B2, the binding result with EphA4-Fc and with EphA8-Fc was “no binding (tested: 300 nM)” throughout. The same molecule displayed a dissociation constant Kd with EphA2-Fc of 0.27 nM.

B3: Fab L1 (Fab, V domains shown)
VH: EVQLVESGGGLVQPGGSLRLSCAASGFTISSSYIHWVRQAPGKGLEWVASISSYYGSTSYADSVKGRFTISADTSKNTAYLQMNSLRAEDTAVYYCARSHYSVWWGWHSVSYYAAFDYWGQGTLVTVSS
VL: DIQMTQSPSSLSASVGDRVTITCRASQSVSSAVAWYQQKPGKAPKLLIYSASSLYSGVPSRFSGSRSGTDFTLTISSLQPEDFATYYCQQGSAPFTFGQGTKVEIK
notes: as for B1
B3: the Kd in data set [1] is under 1 nM.

B4: EphA2 LBD-CRD (residues 23-326) (domain or fragment, human, UniProt P29317 23-326, looked up)
chain: AAQGKEVVLLDFAAAGGELGWLTHPYGKGWDLMQNIMNDMPIYMYSVCNVMSGDQDNWLRTNWVYRGEAERIFIELKFTVRDCNSFPGGASSCKETFNLYYAESDLDYGTNFQKRLFTKIDTIAPDEITVSSDFEARHVKLNVEERSVGPLTRKGFYLAFQDIGACVALLSVRVYYKKCPELLQGLAHFPETIAGSDAPSLATVAGTCVDHAVVPPGGEEPRMHCAVDGEWLVPIGQCLCQAGYEKVEDACQACSPGFFKFEASESPCLECPEHTLPSPEGATSCECEEGFFRAPQDPASMPCT
notes: EphA2, human, LBD-CRD, residues 23-326; A thrombin cleavage site precedes the C-terminal hexahistidine tag; also called LBD-CRD1; LBD-CRD2; source: kifunensine culture, deglycosylated by endoH
Turning to B4, in data set [2], the binding result is listed as “binds”.

B5: Fab F1 (Fab, V domains shown)
VH: EVQLVESGGGLVQPGGSLRLSCAASGFDSGAYLRHWVRQAPGKGLEWVASIYPSYGYTSYADSVKGRFTISADTSKNTAYLQMNSLRAEDTAVYYCARSAASYYGYWHWYHFSPGMDYWGQGTLVTVSS
VL: DIQMTQSPSSLSASVGDRVTITCRASQSVSSAVAWYQQKPGKAPKLLIYSASDLYSGVPSRFSGSRSGTDFTLTISSLQPEDFATYYCQQYVSGGWLITFGQGTKVEIK
notes: Fab^S1F1 in PDB 8T7F (chains C and G, heavy and light chain); Optimised from the parental Fab F1′ (Enderle et al., 2021); The deposited chains carry framework substitutions that this Fab lacks; source: E. coli BL21, purified (Protein A)
B5: in data set [1], the equilibrium dissociation constant (Kd) is under 1 nM.
